Source: PMC9861716

Molecular target: His-Fc-G67 polypeptide
Assay: co-sedimentation; Herceptin on Herceptin-modified liposomes (Her-Lipo), evaluated semi-quantitatively by SDS-PAGE and silver staining; no data shown

amount of Herceptin on Her-Lipo per 100 µg lipid (µg of Herceptin per 100 µg lipid): 0.4
Substance: Herceptin (trastuzumab) (antibody)
